We go through eleven molecules from patent publication US20240076370A1 (Memorial Sloan Kettering, published 2024).

To fix the notation:
B1: ET150-159 scFv (scFv)
scFv: QSVLTQPPSASGTPGQRVTISCSGSSSNIGSNYVYWYQQLPGTAPKLLIYRNNQRPSGVPDRFSGSKSGTSASLAISGLRSEDEADYYCAAWDDSLSGWVFGGGTKLTVLGSRGGGGSGGGGSGGGGSLEMAQVQLVQSGAEVKKPGSSVKVSCKASGGTFSSYAISWVRQAPGQGLEWMGWMNPNSGNTGYAQKFQGRVTMTRNTSISTAYMELSSLRSEDTAVYYCARYQSYKGSQSDSWGQGTLVTVSS
notes: also called ET150-9 scFv
B2: ET150-157 scFv (scFv)
scFv: SYELTQPPSASGTPGQRVTISCSGSSSNIGSNYVSWYQQLPGTAPKLLIYRNNQRPSGVPDRFSGSKSGTSASLAISGLRSEDEADYYCAAWDDSLSGVVFGGGTKLTVLGSRGGGGSGGGGSGGGGSLEMAEVQLVQSGAEVKKPGSSVKVSCKASGGTFSSYAISWVRQAPGQGLEWMGGIIPIFGTAKYAQKFQGRVTITADESTSTAYMELSSLRSEDTAVYYCARSHVAWSLLDYWGQGTLVTVSS
notes: also called ET150-7 scFv
B3: ET150-151 scFv (scFv)
scFv: QSVVTQPASVSGSPGQSITISCTGTSSDVGGYNYVSWYQQHPGKAPKLMIYDVSKRPSGVSNRFSGSKSGNTASLTISGLQAEDEADYYCSSYTSSSTLVFGGGTKLTVLGSRGGGGSGGGGSGGGGSLEMAEVQLVESGGAFVQPGGSLRLSCAASGFTFSSYAMTWVRQAPGKGLEWVSTISGRGRSTFYADSVKGRFTISRDNSKNTLYLQMNSLRAEDTAVYYCARYYHAGAFDLWGQGTLVTVSS
notes: also called ET150-1 scFv
B4: ET150-168 scFv (scFv)
scFv: QSVVTQPPSMSAAPGQQVTISCSGGNSNIERNYVSWYLQLPGTAPKLVIFDNDRRPSGIPDRFSGSKSGTSATLGITGLQTGDEADYYCGTWDSSLRGWVFGGGTKLTVLGSRGGGGSGGGGSGGGGSLEMAEVQLVESGGGLIQPGGSLRLSCAASGFTFSNYAMNWVRQAPGKGLEWVSTINGRGSSTIYADSVKGRFTISRDNSKNTLYLQMNSLRAEDTATYYCARYISRGLGDSWGQGTLVTV
notes: also called ET150-18 scFv
B5: ET150-155 scFv (scFv)
scFv: QSVLTQPPSASGTPGQRVTISCSGSRSNVGGNYVFWYQQVPGATPKLLIYRSNQRPSGVPDRFAGSKSGSSASLAISGLRSEDEADYYCATWDDSLSGFVFGTGTKVTVLGSRGGGGSGGGGSGGGGSLEMAEVQLVESGGGLVKPGGSLRLSCAASGFTFSDYYMSWIRQAPGKGLEWVSYISSSGSTIYYADSVKGRFTISRDNAKNSLYLQMNSLRAEDTAVYYCARGYGKAYDQWGQGTLVTVSS
notes: also called ET150-5 scFv
B6: ET150-158 scFv (scFv)
scFv: SSELTQDPAVSVALGQTVRITCQGDSLRSYYASWYQQKPGQAPVLVIYGKNNRPSGIPDRFSGSSSGNTASLTITGAQAEDEADYYCNSRDSSGNPPVVFGGGTKLTVLGSRGGGGSGGGGSGGGGSLEMAQVQLVESGGGLVHPGGSLRLSCAASGFTFRSHSMNWVRQAPGKGLEWVSSISSDSTYTYYADSVKGRFTISRDNAKNSLYLQMNSLRAEDTAVYYCARSGGQWKYYDYWGQGTLVTVSS
notes: also called ET150-8 scFv
B7: ET150-152 scFv (scFv)
scFv: QSVLTQPASVSGSPGQSLTISCTGTSNDVGAYKYVSWYQQYPGKAPKLILYDVFKRPSGVSNRFSGSKSDNTASLTISGLQAEDEADYYCFSLTSSNTYVFGTGTKVTVLGSRGGGGSGGGGSGGGGSLEMAQMQLVQSGAEVKKPGASVKVSCKASGYTFNRYAITWVRQAPGQGLEWMGWISAYNGNSHYAQKLQGRVTMTTDTSTGTAYMELRRLRSDDTAVYYCARMAYDSWGQGTLVTVSS
notes: also called ET150-2 scFv
B8: ET150-5 mIgG1 (antibody, V domains shown)
VH: EVQLVESGGGLVKPGGSLRLSCAASGFTFSDYYMSWIRQAPGKGLEWVSYISSSGSTIYYADSVKGRFTISRDNAKNSLYLQMNSLRAEDTAVYYCARGYGKAYDQWGQGTLVTVSS
VL: QSVLTQPPSASGTPGQRVTISCSGSRSNVGGNYVFWYQQVPGATPKLLIYRSNQRPSGVPDRFAGSKSGSSASLAISGLRSEDEADYYCATWDDSLSGFVFGTGTKVTVLG
notes: also called ET150-155
B9: ET150-2 mIgG1 (antibody, V domains shown)
VH: QMQLVQSGAEVKKPGASVKVSCKASGYTFNRYAITWVRQAPGQGLEWMGWISAYNGNSHYAQKLQGRVTMTTDTSTGTAYMELRRLRSDDTAVYYCARMAYDSWGQGTLVTVSS
VL: QSVLTQPASVSGSPGQSLTISCTGTSNDVGAYKYVSWYQQYPGKAPKLILYDVFKRPSGVSNRFSGSKSDNTASLTISGLQAEDEADYYCFSLTSSNTYVFGTGTKVTVLG
notes: also called ET150-152
B10: ET150-18 mIgG1 (antibody, V domains shown)
VH: EVQLVESGGGLIQPGGSLRLSCAASGFTFSNYAMNWVRQAPGKGLEWVSTINGRGSSTIYADSVKGRFTISRDNSKNTLYLQMNSLRAEDTATYYCARYISRGLGDSWGQGTLVTV
VL: QSVVTQPPSMSAAPGQQVTISCSGGNSNIERNYVSWYLQLPGTAPKLVIFDNDRRPSGIPDRFSGSKSGTSATLGITGLQTGDEADYYCGTWDSSLRGWVFGGGTKLTVLG
notes: also called ET150-168
B11: ET150-8 mIgG1 (antibody, V domains shown)
VH: QVQLVESGGGLVHPGGSLRLSCAASGFTFRSHSMNWVRQAPGKGLEWVSSISSDSTYTYYADSVKGRFTISRDNAKNSLYLQMNSLRAEDTAVYYCARSGGQWKYYDYWGQGTLVTVSS
VL: SSELTQDPAVSVALGQTVRITCQGDSLRSYYASWYQQKPGQAPVLVIYGKNNRPSGIPDRFSGSSSGNTASLTITGAQAEDEADYYCNSRDSSGNPPVVFGGGTKLTVLG
notes: also called ET150-158

T1 sequence (Q9NZD1 whole entry): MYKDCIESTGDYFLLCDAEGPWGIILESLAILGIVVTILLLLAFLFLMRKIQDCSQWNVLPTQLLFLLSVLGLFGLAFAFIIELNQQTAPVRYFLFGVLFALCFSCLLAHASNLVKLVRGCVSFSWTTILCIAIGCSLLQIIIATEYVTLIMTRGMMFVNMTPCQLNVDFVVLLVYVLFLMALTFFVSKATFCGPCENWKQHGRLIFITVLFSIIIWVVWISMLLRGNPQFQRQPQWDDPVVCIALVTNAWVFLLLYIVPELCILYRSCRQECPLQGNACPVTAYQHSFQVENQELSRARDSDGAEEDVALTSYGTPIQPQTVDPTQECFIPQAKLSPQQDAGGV

The first assay concerns the target T1, human G-protein coupled receptor family C group 5 member D (GPRC5D) (human, UniProt Q9NZD1 1-345).
T1 construct: Overexpressed on 3T3 cells in the FACS assays; also called human GPRC5D; 3T3-GPRC5D
In words: FACS, scFv phage clones on 3T3 cells overexpressing GPRC5D.
For the molecule B1, the binding result is on record as “binds”.

B2: the binding result is reported as “binds”.

The target in another assay is T1, human G-protein coupled receptor family …. In words: flow cytometry: phage clone on 3T3-GPRC5D cells (printed 3T3-ET150), anti-M13 mouse antibody, then APC-labelled anti-mouse IgG; control without phage (A04 anti-M13+ APC mIgG) median 10.9. How it is done:
FACS Screening. […] Phage clones were incubated with 3T3-GPRC5D cell line, then with anti-M13 mouse antibody. Finally APC-labeled anti-mouse IgG 2nd antibody was added to the reaction after washing again. The binding was measured by FACS and expressed as mean fluorescence intensity (MFI). Cells incubated with M13 K07 helper phage and cells only were used as negative controls.
With B3, the “Median, RED2-HLin” value was found to be 3230.

B4: the “Median, RED2-HLin” value was 3180.

Consider B5, for which the “Median, RED2-HLin” value worked out at 3220.

Take B6: the “Median, RED2-HLin” value stood at 3110.

In the case of B7, the “Median, RED2-HLin” value came to 2400.

The next assay shares this target. In words: flow cytometry (MFI, FL2) on 3T3-GPRC5D and parental 3T3 cells at 10 and 1 µg/mL, PE-labelled anti-mouse IgG secondary antibody. Here is the method:
Each antibody (ET150-1, ET150-2, ET150-5, ET150-8, ET150-18) was incubated with 3T3 or 3T3-GPRC5D cells at 10 or 1 μg/mL, then with anti-M13 mouse antibody. Finally PE-labeled anti-mouse IgG 2nd antibody was added to the reaction. The binding was measured by FACS and expressed as mean fluorescence intensity (MFI) (FIG. 13). Cells incubated with 2nd antibody alone, ET901 mIgG1 isotype control and cells only were used as negative controls.
For B8, the binding result is recorded as “binds”.

As to B9, the binding result is “binds”.

In the case of B10, the binding result is recorded as “binds”.

Consider B11, for which the binding result is “binds”.
